Test results from patent publication US20050130227A1 (MUNIN, published 2005).

How the values were obtained:
[1] = biological target: T1, nuclear membrane protein nucleoporin p62 (mouse, UniProt Q63850 2-526); assay: GST pull-down from mouse C1-1D nuclear extract, Western blot
T1 construct: Negative control protein; detected with anti-Nucleoporin p62 monoclonal clone 53; also called nuclear envelope protein Nucleoporin p62
T1 sequence (looked up): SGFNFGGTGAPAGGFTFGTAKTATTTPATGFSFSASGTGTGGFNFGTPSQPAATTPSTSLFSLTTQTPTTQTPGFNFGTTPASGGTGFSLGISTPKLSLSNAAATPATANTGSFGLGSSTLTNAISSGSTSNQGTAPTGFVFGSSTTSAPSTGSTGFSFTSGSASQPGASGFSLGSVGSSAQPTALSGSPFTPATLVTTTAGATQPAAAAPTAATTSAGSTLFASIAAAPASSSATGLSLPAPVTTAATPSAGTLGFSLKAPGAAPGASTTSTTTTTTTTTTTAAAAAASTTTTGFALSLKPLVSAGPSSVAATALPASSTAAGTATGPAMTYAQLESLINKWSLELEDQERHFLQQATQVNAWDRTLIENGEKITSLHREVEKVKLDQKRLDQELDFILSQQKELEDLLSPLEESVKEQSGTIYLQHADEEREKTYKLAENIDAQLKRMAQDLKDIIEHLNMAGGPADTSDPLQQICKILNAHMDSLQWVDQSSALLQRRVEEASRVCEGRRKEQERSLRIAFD
Description: (A) Mouse C1-1D cell nuclear extract proteins were allowed to bind to bead immobilized GST-mGPBP fusion proteins. […] The antibodies used to probe these blots were raised against TBP, The C-terminal domain of RNA polymerase II (RNA pol II CTD), Transcription Fraction IIB (TFIIB), Transcription Fraction IIF RAP30 subunit (TFIIF RAP30), P300/CAAT Binding Protein (CBP), and the negative control antibodies against the nuclear envelope protein Nucleoporin p62. The estimated molecular weight of proteins in each band (in Kd) based on electrophoretic mobility in comparison to protein size markers were shown on the right by arrows. (B) In vivo binding of mGPBP was determined by immuno-coprecipitation analyses of cell lysates. […] The antibodies raised against TBP, RNA pol II CTD, TFIIB, CBP, or HA-tag were used as probes as indicated in each blot. The estimated molecular weight of proteins in each band (in Kd) based on electrophoretic mobility in comparison to protein size markers are shown on by arrows. The migration location of the HA-mGPBP fusion protein is also shown on the right of the panel with an arrow.
Nuclear extracts were prepared as previously described (Berger and Kimmel, 1987) with minor modifications. Mouse C1-1D Cells were collected and washed with 10 volumes of PBS once. […]

[2] = biological target: T1, nuclear membrane protein nucleoporin p62; assay: co-immunoprecipitation with anti-HA antibodies from transfected C1-1D cells, Western blot
Description: To examine whether the in vitro complexing of GPBP with transcription factors also occurs in vivo, we performed a co-immunoprecipitation experiment using an HA-tagged mGPBP expression construct in mouse C1-1D cells. The hemagglutinin antigen (HA)-tagged (Field, 1988[2]) mGPBP eukaryotic expression construct pCDNAHA-mGPBP was generated by inserting the (HA) tag coding sequence upstream of, and in frame with, the mGPBP cDNA's ORF in pCDNA-mGPBP. Anti-HA antibodies were used to immunoprecipitate nuclear extract proteins derived from the transfected cells. As a control, nuclear extract from cells transfected with the HA expression vector containing no GPBP-encoding sequences underwent a similar immunoprecipitation procedure.

| Binder | binding result [1] | binding result [2] |
| --- | --- | --- |
| recombinant GST-mGPBP fusion protein (other, also called immobilized recombinant mGPBP; bead immobilized GST-mGPBP fusion proteins; not shown: N-terminal glutathione S-transferase (GST) carrier and the vector-encoded linker of pGEX-4T-1 between GST and the insert) MAQHDFAPAWLNFPTPPSSTKSSLNFEKHSENFSWTENRYDVSRRRHNSSDGFDSGIGRPNGGNFGRKEKNGWRTHGRNGTENINHRGGYHGGNSRSRSSIFHSGKSQGLHENSIPDNETGRKEDKRERRQFEAEDFPSLNPEYEREPNQNKSLAAGVWGLHAQTHTYPTKKISQAPLLDYPPNPKSRTPRMLVIKKGNTKDLQLSGFPVAGNLQSQPVKNGTSPSVYKGLVPKPAVPPTKPTQWKSQTKENKVGTSFSHESTYGVGNFNTFKSTAKNISPSTNSVKECNRSNSSSPVDKLNQQPRLTKLTRMRSDKKSEFLKALKRDRVEEEHEDESHAGSEKDDDSFNLHNSNTTHQERDINRNFDENEIPQENGNASIISQQIIRSSTFPQTDVLSSSLEAEHRLLKEMGWQEDSENDETCAPLTEDEMREFQVISEQLQKNGLRKNGILKNGLICDFKFGPWKNSTFKPTIENDDTETSSSDTSDDDDV | no binding |  |
| HA-tagged mGPBP (other, Expressed from pCDNAHA-mGPBP in transfected mouse C1-1D cells; whole mGPBP ORF; also called HA-mGPBP; HA-tag fused to mGPBP; not shown: hemagglutinin antigen (HA) tag upstream of and in frame with the ORF) MAQHDFAPAWLNFPTPPSSTKSSLNFEKHSENFSWTENRYDVSRRRHNSSDGFDSGIGRPNGGNFGRKEKNGWRTHGRNGTENINHRGGYHGGNSRSRSSIFHSGKSQGLHENSIPDNETGRKEDKRERRQFEAEDFPSLNPEYEREPNQNKSLAAGVWGLHAQTHTYPTKKISQAPLLDYPPNPKSRTPRMLVIKKGNTKDLQLSGFPVAGNLQSQPVKNGTSPSVYKGLVPKPAVPPTKPTQWKSQTKENKVGTSFSHESTYGVGNFNTFKSTAKNISPSTNSVKECNRSNSSSPVDKLNQQPRLTKLTRMRSDKKSEFLKALKRDRVEEEHEDESHAGSEKDDDSFNLHNSNTTHQERDINRNFDENEIPQENGNASIISQQIIRSSTFPQTDVLSSSLEAEHRLLKEMGWQEDSENDETCAPLTEDEMREFQVISEQLQKNGLRKNGILKNGLICDFKFGPWKNSTFKPTIENDDTETSSSDTSDDDDV |  | no binding |
